Values of other authors as cited in paper PMC5615855.

Biological target: N2B (HEB) N2B (Homo sapiens) (UniProt Q99081)

In the case of “NHR2 (AML1-ETO) NHR2 (from UniProt Q06455)”, the Kd is listed as 356 µM.
